The chains are these.
T1: Bacillus subtilis Smc protein (Bacillus subtilis, UniProt P51834 1-1186)
T1 sequence (looked up): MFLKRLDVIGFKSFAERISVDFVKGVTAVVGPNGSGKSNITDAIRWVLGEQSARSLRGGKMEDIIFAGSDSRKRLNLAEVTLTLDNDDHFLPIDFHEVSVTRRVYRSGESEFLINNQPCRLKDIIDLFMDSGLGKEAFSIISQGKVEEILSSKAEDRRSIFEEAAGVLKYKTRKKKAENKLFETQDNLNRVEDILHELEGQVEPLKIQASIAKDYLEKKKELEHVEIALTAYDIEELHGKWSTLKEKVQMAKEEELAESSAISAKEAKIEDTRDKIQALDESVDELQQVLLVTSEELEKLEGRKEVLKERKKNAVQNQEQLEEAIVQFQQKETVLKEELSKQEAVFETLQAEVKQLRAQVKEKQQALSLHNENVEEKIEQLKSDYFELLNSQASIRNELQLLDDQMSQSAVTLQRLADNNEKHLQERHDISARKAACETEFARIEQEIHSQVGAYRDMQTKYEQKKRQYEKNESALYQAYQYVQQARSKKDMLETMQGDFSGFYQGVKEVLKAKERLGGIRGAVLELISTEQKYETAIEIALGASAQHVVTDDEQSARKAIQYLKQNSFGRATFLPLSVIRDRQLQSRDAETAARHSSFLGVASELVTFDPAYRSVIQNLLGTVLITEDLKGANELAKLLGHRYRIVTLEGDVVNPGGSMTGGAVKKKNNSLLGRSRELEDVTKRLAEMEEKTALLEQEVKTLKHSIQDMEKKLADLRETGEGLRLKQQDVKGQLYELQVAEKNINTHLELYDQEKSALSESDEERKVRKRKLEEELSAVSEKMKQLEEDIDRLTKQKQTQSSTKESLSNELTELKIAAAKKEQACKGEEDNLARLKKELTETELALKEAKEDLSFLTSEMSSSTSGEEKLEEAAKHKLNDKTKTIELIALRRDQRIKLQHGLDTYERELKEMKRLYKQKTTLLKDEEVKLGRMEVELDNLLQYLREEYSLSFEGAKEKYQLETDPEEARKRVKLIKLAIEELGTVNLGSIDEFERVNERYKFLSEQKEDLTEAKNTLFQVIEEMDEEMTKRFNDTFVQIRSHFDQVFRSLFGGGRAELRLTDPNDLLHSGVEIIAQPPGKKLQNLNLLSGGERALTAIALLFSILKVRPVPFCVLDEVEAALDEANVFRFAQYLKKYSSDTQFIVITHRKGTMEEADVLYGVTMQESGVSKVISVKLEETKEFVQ

T2: Bs Smc (Bacillus subtilis, UniProt P51834 1-1186)
T2 sequence: T1 sequence (looked up)

T3: ScSmc2H-CC110;ScSmc4H-CC110 (Saccharomyces cerevisiae?;Saccharomyces …, UniProt P38989;Q12267 396-792;555-951, |)
T3 sequence 1: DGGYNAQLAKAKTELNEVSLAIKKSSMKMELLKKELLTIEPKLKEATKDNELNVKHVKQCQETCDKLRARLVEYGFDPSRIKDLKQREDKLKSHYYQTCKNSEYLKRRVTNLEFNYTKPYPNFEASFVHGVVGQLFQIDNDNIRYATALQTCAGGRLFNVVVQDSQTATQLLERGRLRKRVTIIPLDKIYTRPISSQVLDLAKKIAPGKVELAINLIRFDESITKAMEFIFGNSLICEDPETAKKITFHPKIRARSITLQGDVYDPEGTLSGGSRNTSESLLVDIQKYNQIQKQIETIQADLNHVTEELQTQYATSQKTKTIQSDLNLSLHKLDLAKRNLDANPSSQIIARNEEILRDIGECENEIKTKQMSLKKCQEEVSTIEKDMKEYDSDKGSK
T3 sequence 2: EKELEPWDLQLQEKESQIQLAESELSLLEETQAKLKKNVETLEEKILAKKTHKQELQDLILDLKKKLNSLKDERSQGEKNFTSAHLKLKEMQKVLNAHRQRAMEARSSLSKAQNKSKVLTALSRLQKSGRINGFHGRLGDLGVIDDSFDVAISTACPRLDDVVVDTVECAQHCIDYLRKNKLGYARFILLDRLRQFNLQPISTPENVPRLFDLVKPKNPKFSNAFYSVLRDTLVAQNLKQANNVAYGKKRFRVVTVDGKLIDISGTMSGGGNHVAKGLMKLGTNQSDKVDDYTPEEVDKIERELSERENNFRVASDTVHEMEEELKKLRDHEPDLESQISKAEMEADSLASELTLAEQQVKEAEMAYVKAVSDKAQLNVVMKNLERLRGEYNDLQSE

T4: BsSmcH-CC8 (Bacillus subtilis, UniProt P51834 489-680)
T4 sequence: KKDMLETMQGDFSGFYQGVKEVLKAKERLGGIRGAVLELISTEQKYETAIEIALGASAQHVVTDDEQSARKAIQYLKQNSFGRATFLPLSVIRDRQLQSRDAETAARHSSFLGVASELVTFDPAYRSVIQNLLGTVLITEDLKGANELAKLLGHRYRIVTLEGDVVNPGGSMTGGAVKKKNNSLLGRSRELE

T5: BsSmcH-CC100 (Bacillus subtilis, UniProt P51834 400-776)
T5 sequence: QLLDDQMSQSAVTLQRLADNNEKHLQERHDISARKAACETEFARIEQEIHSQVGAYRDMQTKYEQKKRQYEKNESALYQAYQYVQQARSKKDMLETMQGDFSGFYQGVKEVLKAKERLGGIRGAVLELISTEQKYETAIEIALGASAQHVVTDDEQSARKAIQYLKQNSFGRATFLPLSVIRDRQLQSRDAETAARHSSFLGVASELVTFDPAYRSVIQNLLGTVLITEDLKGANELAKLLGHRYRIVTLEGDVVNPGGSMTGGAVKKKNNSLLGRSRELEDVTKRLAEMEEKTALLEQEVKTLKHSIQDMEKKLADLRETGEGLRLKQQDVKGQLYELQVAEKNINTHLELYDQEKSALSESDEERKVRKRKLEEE

T6: BsSmcH (Bacillus subtilis, UniProt P51834 498-665)
T6 sequence: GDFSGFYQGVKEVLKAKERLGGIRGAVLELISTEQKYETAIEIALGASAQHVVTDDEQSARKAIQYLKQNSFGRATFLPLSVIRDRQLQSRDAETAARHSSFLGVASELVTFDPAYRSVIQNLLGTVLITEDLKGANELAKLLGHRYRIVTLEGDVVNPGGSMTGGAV

B1: Bacillus subtilis ScpA (natural protein, UniProt P35154 1-251, looked up)
chain: MEEYQVKIDTFEGPLDLLLHLINRLEIDIYDIPVAKITEQYLLYVHTMRVLELDIASEYLVMAATLLSIKSRMLLPKQEEELFEDELLEEEDPREELIEKLIEYRKYKDAAKDLKEREEERQKSFTKPPSDLSEYAKEVKQSEQKLSVTVYDMIGAFQKVLKRKKINRPMETTITRQDIPIEARMNEIVHSLKSRGTRINFMDLFPYEQKEHLVVTFLAVLELMKNQLVLIEQEHNFSDIYITGSESIHGA
B2: Bacillus subtilis ScpB (natural protein, UniProt P35155 1-197, looked up)
chain: MGLDIVNWKAIVEALLYAAGDEGLTKKQLLTVLEIEEPELNTIMADVADEYRGDTRGIELIEYADTYMLSTKKDFAPYLKKLIEVPSKGLSQASLEVLAIVSYKQPITRAEIEEIRGVKSERILHSLVAKALLCEVGRADGPGRAILYGTTPTFLEQFGLKTLDELPPLPENAEEDVLQEEADLFFENFNQTFEDIK
B3: ds40 (dsDNA)
DNA 1: TTAGTTGTTCGTAGTGCTCGTCTGGCTCTGGATTACCCGC
DNA 2: GCGGGTAATCCAGAGCCAGACGAGCACTACGAACAACTAA

In data set [1] the target is T1, Bacillus subtilis Smc protein. Put plainly: SEC-MALS. For orientation: In gel filtration, larger molecules generally elute earlier.
Data set [2] concerns the target B1. Description: SEC-MALS.
Data set [3] deals with the molecule itself. Description: SEC-MALS.
Data set [4] addresses T2, Bs Smc. Put plainly: fluorescence anisotropy. For orientation: Polarisation of emitted light reports the rotation of a fluorescent probe.
In data set [5] the target is T3, ScSmc2H-CC110;ScSmc4H-CC110. Description: fluorescence anisotropy.
Data set [6] has as its target T4, BsSmcH-CC8. Description: fluorescence anisotropy.
Data set [7] addresses T5, BsSmcH-CC100. Put plainly: fluorescence anisotropy.
Data set [8] concerns the target T6, BsSmcH. Description: fluorescence anisotropy.

By Kd is commonly meant the equilibrium constant for the complex coming apart. The low end stands for higher affinity, the high end for lower affinity.

For B1, the binding result in data set [1] is on record as “binds”.

As to B2, the binding result in data set [1], in data set [2] and in data set [3] was “binds” in each case.

Regarding B3, the Kd in data set [4] was around 100 nM; in data set [5], around 50 nM; in data set [6] it was around 200 nM; in data set [7], around 100 nM. The binding result in data set [8] is “no binding”.
